Starred links: 1 amine or outer side, 2 acyl side, 3 side chain; linkers in the order of their positions; H or OH if unused. Non-standard residues stand in square brackets, D forms with d. Groups on a side chain read outwards from the residue. *: point of attachment. C20 diacid = O=C(O)CCCCCCCCCCCCCCCCCCC(=O)*; γGlu = O=C(O)[C@H](CCC(=O)[*:2])N[*:1]; Desaminohistidyl = O=C(CCc1c[nH]cn1)*; AEEA = NCCOCCOCC(=O)O; Inp = O=C(O)C1CCNCC1
Biological target: T1, human serum albumin (HSA) (human, UniProt P02768 25-609, biotinylated)
T1 construct: also called biotinylated HSA
Experiment: competition SPA on biotinylated HSA, 125I acylated GLP-1 tracer;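 further: streptavidin SPA beads carrying biotinylated HSA, competition incubated 20 h at room temperature, plates then read on a TopCount counter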
Procedure: Streptavidin-SPA beads (GE Healthcare RPNQ0009) were incubated with biotinylated HSA for 5 hours. The beads were washed with buffer to remove unbound HSA. […] After 20 hours of gentle rocking at room temperature the plates were centrifuged and counted on a TopCounter.

B1: [DesaminoHis7,Glu22,Arg26,Arg34]GLP-1-(7-37)Lys[2-(2-[2-(2-[2-(2-((S)-4-[1-[19-Carboxynonadecanoyl]piperidine-4-carbonylamino]-4-carboxybutyrylamino)ethoxy)etho … (peptide)
peptide: [Desaminohistidyl]AEGTFTSDVSSYLEEQAAREFIAWLVRGRGK([AEEA-AEEA-γGlu-Inp-C20 diacid])-NH2
SMILES: CC[C@H](C)[C@H](NC(=O)[C@H](Cc1ccccc1)NC(=O)[C@H](CCC(=O)O)NC(=O)[C@H](CCCNC(=N)N)NC(=O)[C@H](C)NC(=O)[C@H](C)NC(=O)[C@H](CCC(N)=O)NC(=O)[C@H](CCC(=O)O)NC(=O)[C@H](CCC(=O)O)NC(=O)[C@H](CC(C)C)NC(=O)[C@H](Cc1ccc(O)cc1)NC(=O)[C@H](CO)NC(=O)[C@H](CO)NC(=O)[C@@H](NC(=O)[C@H](CC(=O)O)NC(=O)[C@H](CO)NC(=O)[C@@H](NC(=O)[C@H](Cc1ccccc1)NC(=O)[C@@H](NC(=O)CNC(=O)[C@H](CCC(=O)O)NC(=O)[C@H](C)NC(=O)CCc1c[nH]cn1)[C@@H](C)O)[C@@H](C)O)C(C)C)C(=O)N[C@@H](C)C(=O)N[C@@H](Cc1c[nH]c2ccccc12)C(=O)N[C@@H](CC(C)C)C(=O)N[C@H](C(=O)N[C@@H](CCCNC(=N)N)C(=O)NCC(=O)N[C@@H](CCCNC(=N)N)C(=O)NCC(=O)N[C@@H](CCCCNC(=O)COCCOCCNC(=O)COCCOCCNC(=O)CC[C@H](NC(=O)C1CCN(C(=O)CCCCCCCCCCCCCCCCCCC(=O)O)CC1)C(=O)O)C(N)=O)C(C)C
In the case of B1, the EC50 is reported as 300 to 800 nM.

— patent US20140011732A1 (Novo Nordisk, published 2014)
